Experimental data published in patent US20050196753A1, “Human coactivator-associated arginine methyltransferase 1 (hCARM1)” (priority 2002, published 2005).

Columns and labels:
Histone H3 = test: Methylation assay: methylating activity of purified hCARM1; assay type: biochemical; settings: increasing amounts of purified enzyme, constant recombinant Histone H3 (FIG. 2)
Procedure: Methylation assay protocol: Reactions were performed in IX methylation buffer containing 20 mM Tris.HCl, pH 8.0, 200 mM NaCl and 0.4 mM EDTA. Reactions were assembled with 2.5 ug of Histone H3 and increasing amounts of hCARM1 (0.25 ug, 0.5 ug, 1.25 ug, 2.5 ug, 3.75 ug, 5 ug, or 7.5 ug). A mock reaction where hCARM1 was omitted was used as the negative control. Reactions were incubated at 30° C. for 1 hr. prior to loading on a 10-20% gradient SDS-PAGE. The gel was fixed, dried and exposed to film.
A methylation reaction was performed in order to evaluate whether the cloned full-length hCARM1 had methylating activity. Mouse CARM1 has been previously shown to specifically methylate Histone H3 in vitro and in vivo.

[1] = test system: ER dependent promoter reporter in T47D cells; test: ER dependent luciferase reporter assay in transfected T47D cells; assay type: cell-based, human; settings: hCARM1 co-transfected with GRIP-1 and ER, compared to GRIP-1 and ER alone
Procedure: Transfection protocol: Cells were plated in 12 well-dishes and allowed to adhere and grow overnight such that they were 80% confluent at the time of transfection. Tranfections were performed in triplicate using Lipofectamine 2000 (Gibco) and OptiMEM media. Total amount of DNA transfected was held constant within experiments. Six hrs. post transfection the Lipofectamine-DNA mix was removed and replaced with fresh media containing 10% serum. Hormone (dihydrotestosterone or estradiol) was added at this time and reporter activation measured after 24 hr.
Mouse CARM1 has been implicated as a coactivator of the androgen and estrogen receptor mediated signaling pathways along with the well-known steroid coactivator GRIP-1. The contribution, if any, of the human clone to these pathways was investigated. […] Thus, antagonizing endogenous CARM1 is deleterious to hormone dependent activation by endogeous ER.

B1: hCARM1: cloned full-length human CARM1, produced in and purified from baculovirus infected insect cells; transfected as cDNA in cell assays (protein, UniProt Q86X55 1-608, looked up)
chain: MAAAAAAVGPGAGGAGSAVPGGAGPCATVSVFPGARLLTIGDANGEIQRHAEQQALRLEVRAGPDSAGIALYSHEDVCVFKCSVSRETECSRVGKQSFIITLGCNSVLIQFATPNDFCSFYNILKTCRGHTLERSVFSERTEESSAVQYFQFYGYLSQQQNMMQDYVRTGTYQRAILQNHTDFKDKIVLDVGCGSGILSFFAAQAGARKIYAVEASTMAQHAEVLVKSNNLTDRIVVIPGKVEEVSLPEQVDIIISEPMGYMLFNERMLESYLHAKKYLKPSGNMFPTIGDVHLAPFTDEQLYMEQFTKANFWYQPSFHGVDLSALRGAAVDEYFRQPVVDTFDIRILMAKSVKYTVNFLEAKEGDLHRIEIPFKFHMLHSGLVHGLAFWFDVAFIGSIMTVWLSTAPTEPLTHWYQVRCLFQSPLFAKAGDTLSGTCLLIANKRQSYDISIVAQVDQTGSKSSNLLDLKNPFFRYTGTTPSPPPGSHYTSPSENMWNTGSTYNLSSGMAVAGMPTAYDLSSVIASGSSVGHNNLIPLANTGIVNHTHSRMGSIMSTGIVQGSSGAQGSGGGSTSAHYAVNSQFTMGGPAISMASPMSIPTNTMHYGS
modifications: full-length
notes: cloned full-length human CARM1, produced in and purified from baculovirus infected insect cells; transfected as cDNA in cell assays
B1 was tested, and the “methylation of Histone H3 by hCARM1” value (Histone H3) was “methylates Histone H3 efficiently” and the “estradiol mediated induction of ER dependent luciferase reporter” value [1] was “concentration dependent increase”.
